In assay [1] the target is T1, Recombinant Human TNF-α/TNFSF1A (human, UniProt P01375 77-233). Kind of assay: cell-based or functional assay.
Assay [2] concerns the target T1, Recombinant Human TNF-α/TNFSF1A. Put plainly: SPR (BIACORE), antibody captured, TNFα in solution. As for the experimental part:
The BIACORE assay (Biacore, Inc, Piscataway, N.J.) determines the affinity of antibodies with kinetic measurements of on-rate and off-rate constants. Binding of antibodies to a target antigen (for example, a purified recombinant target antigen) is determined by surface plasmon resonance-based measurements with a Biacore® 1000 or 3000 instrument (Biacore® AB, Uppsala, Sweden) using running HBS-EP (10 mM HEPES [pH 7.4], 150 mM NaCl, 3 mM EDTA, and 0.005% surfactant P20) at 25° C. All chemicals are obtained from Biacore® AB (Uppsala, Sweden) or otherwise from a different source as described. For example, approximately 5000 RU of goat anti-mouse IgG, (Fcγ), fragment specific polyclonal antibody (Pierce Biotechnology Inc, Rockford, Ill.) diluted in 10 mM sodium acetate (pH 4.5) is directly immobilized across a CM5 research grade biosensor chip using a standard amine coupling kit according to manufacturer's instructions and procedures at 25 μg/ml. Unreacted moieties on the biosensor surface are blocked with ethanolamine. Modified carboxymethyl dextran surface in flowcell 2 and 4 is used as a reaction surface. Unmodified carboxymethyl dextran without goat anti-mouse IgG in flow cell 1 and 3 is used as the reference surface. For kinetic analysis, rate equations derived from the 1:1 Langmuir binding model are fitted simultaneously to association and dissociation phases of all eight injections (using global fit analysis) with the use of Biaevaluation 4.0.1 software. Purified antibodies are diluted in HEPES-buffered saline for capture across goat anti-mouse IgG specific reaction surfaces. Antibodies to be captured as a ligand (25 μg/ml) are injected over reaction matrices at a flow rate of 5 μl/minute. The association and dissociation rate constants, kₒₙ (M⁻¹ s⁻¹) and koff (s⁻¹), are determined under a continuous flow rate of 25 μl/minute. Rate constants are derived by making kinetic binding measurements at different antigen concentrations ranging from 10-200 nM. The equilibrium dissociation constant (M) of the reaction between antibodies and the target antigen is then calculated from the kinetic rate constants by the following formula: KD=koff/kₒₙ. Binding is recorded as a function of time and kinetic rate constants are calculated. In this assay, on-rates as fast as 10⁶ M⁻¹ s⁻¹ and off-rates as slow as 10⁻⁶ s⁻¹ can be measured.
In general terms: In SPR one partner is held on a chip, and binding of the other changes the refractive index at the surface.

T1 sequence (P01375 77-233 limits assumed): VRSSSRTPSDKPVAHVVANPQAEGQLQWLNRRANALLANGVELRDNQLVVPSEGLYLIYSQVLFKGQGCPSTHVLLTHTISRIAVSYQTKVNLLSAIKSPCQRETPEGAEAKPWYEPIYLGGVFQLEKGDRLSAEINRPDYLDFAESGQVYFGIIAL

B1: AB353 (antibody, V domains shown)
VH: EVQLVQSGSELKKPGASVKVSCKASGYTFTNYGMNWVRQAPGQGLEWMGWINTYTGEPTYADDFKGRFVFSLDTSVSTAYLQISSLKAEDTAVYYCARKFLTTVVVTDYAMDYWGQGTTVTVSS
VL: DIQMTQSPSSLSASVGDRVTITCRASQDISNYLNWYQQKPGKAPKLLIYYTSRLQSGVPSRFSGSGSGTDYTLTISSLQPEDFATYYCQQGNTLPPTFGQGTKLEIK
notes: Full-length humanized antibody made in HEK 293-6E; also called hMAK199VH.1/hMAK199VL.1b
As usually defined, the Kd is the constant that tells how readily two partners part at equilibrium. Usually koff stands for a measure of how fast the partners let go of each other. What is called kon is the rate constant with which the complex forms. As to B1, the “TNFα Neutralization Assay IC50 nM (L929 cells)” value in assay [1] came out at 0.66 nM. In addition, in assay [2], the equilibrium dissociation constant (Kd) is 460 pM, the koff was 0.00092 s⁻¹ and the kon turned out to be 2e+06 M⁻¹ s⁻¹.

B2: AB352 (antibody, V domains shown)
VH: EVQLVQSGSELKKPGASVKVSCKASGYTFTNYGMNWVRQAPGQGLEWMGWINTYTGEPTYADDFKGRFVFSLDTSVSTAYLQISSLKAEDTAVYYCARKFLTTVVVTDYAMDYWGQGTTVTVSS
VL: DIQMTQSPSSLSASVGDRVTITCRASQDISNYLNWYQQKPGKTVKLLIYYTSRLQSGVPSRFSGSGSGTDYTLTISSLQPEDFATYFCQQGNTLPPTFGQGTKLEIK
notes: Full-length humanized antibody made in HEK 293-6E; also called hMAK199VH.1/hMAK199VL.1a
Take B2: in assay [1], the “TNFα Neutralization Assay IC50 nM (L929 cells)” value came to 0.35 nM. For the same molecule, in assay [2], the equilibrium dissociation constant (Kd) was 450 pM, the koff is 0.00094 s⁻¹ and the kon is 2.1e+06 M⁻¹ s⁻¹.

B3: AB360 (antibody, V domains shown)
VH: EIQLVQSGSELKKPGASVKVSCKASGYTFTNYGMNWVRQAPGQGLEWMGWINTYTGEPTYADDFKGRFVFSLDTSVSTAYLQISSLKAEDTAVYFCARKFLTTVVVTDYAMDYWGQGTTVTVSS
VL: DVVMTQSPAFLSVTPGEKVTITCRASQDISNYLNWYQQKPDQAPKLLIKYTSRLQSGVPSRFSGSGSGTDFTFTISSLEAEDAATYYCQQGNTLPPTFGQGTKLEIK
notes: Full-length humanized antibody made in HEK 293-6E; also called hMAK199VH.1a/hMAK199VL.2
B3: in assay [2], the Kd is 780 pM, the koff is 0.00097 s⁻¹ and the kon was 1.2e+06 M⁻¹ s⁻¹.

B4: AB364 (antibody, V domains shown)
VH: EVQLVQSGSELKKPGASVKVSCKASGYTFTNYGMNWVRQAPGQGLEWMGWINTYTGEPTYADDFKGRFVFSLDTSVSTAYLQISSLKAEDTAVYFCARKFLTTVVVTDYAMDYWGQGTTVTVSS
VL: DIQMTQSPSSLSASVGDRVTITCRASQDISNYLNWYQQKPGKTVKLLIYYTSRLQSGVPSRFSGSGSGTDYTLTISSLQPEDFATYFCQQGNTLPPTFGQGTKLEIK
notes: Full-length humanized antibody made in HEK 293-6E; also called hMAK199VH.1b/hMAK199VL.1a
As to B4, the “TNFα Neutralization Assay IC50 nM (L929 cells)” value in assay [1] came out at 0.35 nM. In assay [2], the Kd came to 890 pM, the dissociation rate constant (koff) was 0.0011 s⁻¹ and the kon was determined as 1.2e+06 M⁻¹ s⁻¹.

B5: AB354 (antibody, V domains shown)
VH: EVQLVQSGSELKKPGASVKVSCKASGYTFTNYGMNWVRQAPGQGLEWMGWINTYTGEPTYADDFKGRFVFSLDTSVSTAYLQISSLKAEDTAVYYCARKFLTTVVVTDYAMDYWGQGTTVTVSS
VL: DVVMTQSPAFLSVTPGEKVTITCRASQDISNYLNWYQQKPDQAPKLLIKYTSRLQSGVPSRFSGSGSGTDFTFTISSLEAEDAATYYCQQGNTLPPTFGQGTKLEIK
notes: Full-length humanized antibody made in HEK 293-6E; also called hMAK199VH.1/hMAK199VL.2
On to B5, for which, in assay [2], the Kd amounted to 520 pM, the koff was 0.001 s⁻¹ and the on-rate (kon) is 2e+06 M⁻¹ s⁻¹.

B6: AB366 (antibody, V domains shown)
VH: EVQLVQSGSELKKPGASVKVSCKASGYTFTNYGMNWVRQAPGQGLEWMGWINTYTGEPTYADDFKGRFVFSLDTSVSTAYLQISSLKAEDTAVYFCARKFLTTVVVTDYAMDYWGQGTTVTVSS
VL: DVVMTQSPAFLSVTPGEKVTITCRASQDISNYLNWYQQKPDQAPKLLIKYTSRLQSGVPSRFSGSGSGTDFTFTISSLEAEDAATYYCQQGNTLPPTFGQGTKLEIK
notes: Full-length humanized antibody made in HEK 293-6E; also called hMAK199VH.1b/hMAK199VL.2
With B6, in assay [2], the dissociation constant Kd amounted to 930 pM, the koff was 0.0015 s⁻¹ and the kon was found to be 1.6e+06 M⁻¹ s⁻¹.

B7: AB358 (antibody, V domains shown)
VH: EIQLVQSGSELKKPGASVKVSCKASGYTFTNYGMNWVRQAPGQGLEWMGWINTYTGEPTYADDFKGRFVFSLDTSVSTAYLQISSLKAEDTAVYFCARKFLTTVVVTDYAMDYWGQGTTVTVSS
VL: DIQMTQSPSSLSASVGDRVTITCRASQDISNYLNWYQQKPGKTVKLLIYYTSRLQSGVPSRFSGSGSGTDYTLTISSLQPEDFATYFCQQGNTLPPTFGQGTKLEIK
notes: Full-length humanized antibody made in HEK 293-6E; also called hMAK199VH.1a/hMAK199VL.1a
Regarding B7, the “TNFα Neutralization Assay IC50 nM (L929 cells)” value in assay [1] amounted to 0.21 nM. Moreover, in assay [2], the Kd amounted to 700 pM, the koff worked out at 0.00097 s⁻¹ and the kon was 1.4e+06 M⁻¹ s⁻¹.

B8: AB363 (antibody, V domains shown)
VH: EVQLVQSGSELKKPGASVKVSCKASGYTFTNYGMNWVRQAPGQGLEWMGWINTYTGEPTYADDFKGRFVFSLDTSVSTAYLQISSLKAEDTAVYFCARKFLTTVVVTDYAMDYWGQGTTVTVSS
VL: DIQMTQSPSSLSASVGDRVTITCRASQDISNYLNWYQQKPGKAPKLLIYYTSRLQSGVPSRFSGSGSGTDFTLTISSLQPEDFATYYCQQGNTLPPTFGQGTKLEIK
notes: Full-length humanized antibody made in HEK 293-6E; also called hMAK199VH.1b/hMAK199VL.1
Regarding B8, in assay [1], the “TNFα Neutralization Assay IC50 nM (L929 cells)” value stood at 0.32 nM. For the same molecule, in assay [2], the Kd came to 860 pM, the koff stood at 0.0012 s⁻¹ and the on-rate (kon) was 1.4e+06 M⁻¹ s⁻¹.

B9: AB351 (antibody, V domains shown)
VH: EVQLVQSGSELKKPGASVKVSCKASGYTFTNYGMNWVRQAPGQGLEWMGWINTYTGEPTYADDFKGRFVFSLDTSVSTAYLQISSLKAEDTAVYYCARKFLTTVVVTDYAMDYWGQGTTVTVSS
VL: DIQMTQSPSSLSASVGDRVTITCRASQDISNYLNWYQQKPGKAPKLLIYYTSRLQSGVPSRFSGSGSGTDFTLTISSLQPEDFATYYCQQGNTLPPTFGQGTKLEIK
notes: Full-length humanized antibody made in HEK 293-6E; also called hMAK199VH.1/hMAK199VL.1
Regarding B9, the “TNFα Neutralization Assay IC50 nM (L929 cells)” value in assay [1] turned out to be 1.06 nM. In addition, in assay [2], the koff amounted to 0.00068 s⁻¹ and the kon was 2e+06 M⁻¹ s⁻¹.

B10: AB359 (antibody, V domains shown)
VH: EIQLVQSGSELKKPGASVKVSCKASGYTFTNYGMNWVRQAPGQGLEWMGWINTYTGEPTYADDFKGRFVFSLDTSVSTAYLQISSLKAEDTAVYFCARKFLTTVVVTDYAMDYWGQGTTVTVSS
VL: DIQMTQSPSSLSASVGDRVTITCRASQDISNYLNWYQQKPGKAPKLLIYYTSRLQSGVPSRFSGSGSGTDYTLTISSLQPEDFATYYCQQGNTLPPTFGQGTKLEIK
notes: Full-length humanized antibody made in HEK 293-6E; also called hMAK199VH.1a/hMAK199VL.1b
For B10, the “TNFα Neutralization Assay IC50 nM (L929 cells)” value in assay [1] was determined as 3.78 nM. Also, in assay [2], the Kd was 730 pM, the koff came to 0.00093 s⁻¹ and the kon was 1.3e+06 M⁻¹ s⁻¹.

B11: AB357 (antibody, V domains shown)
VH: EIQLVQSGSELKKPGASVKVSCKASGYTFTNYGMNWVRQAPGQGLEWMGWINTYTGEPTYADDFKGRFVFSLDTSVSTAYLQISSLKAEDTAVYFCARKFLTTVVVTDYAMDYWGQGTTVTVSS
VL: DIQMTQSPSSLSASVGDRVTITCRASQDISNYLNWYQQKPGKAPKLLIYYTSRLQSGVPSRFSGSGSGTDFTLTISSLQPEDFATYYCQQGNTLPPTFGQGTKLEIK
notes: Full-length humanized antibody made in HEK 293-6E; also called hMAK199VH.1a/hMAK199VL.1
Turning to B11, in assay [1], the “TNFα Neutralization Assay IC50 nM (L929 cells)” value stood at 1.94 nM. In addition, in assay [2], the Kd turned out to be 670 pM, the koff is 0.0013 s⁻¹ and the kon turned out to be 1.9e+06 M⁻¹ s⁻¹.

B12: AB384 (antibody, V domains shown)
VH: EIQLVQSGAEVKKPGASVKVSCKASGYTFTNYGMNWVRQAPGQGLEWMGWINTYTGEPTYADDFKGRVTFTTDTSTSTAYMELSSLRSEDTAVYYCARKFLTTVVVTDYAMDYWGQGTTVTVSS
VL: DVVMTQSPAFLSVTPGEKVTITCRASQDISNYLNWYQQKPDQAPKLLIKYTSRLQSGVPSRFSGSGSGTDFTFTISSLEAEDAATYYCQQGNTLPPTFGQGTKLEIK
notes: Full-length humanized antibody made in HEK 293-6E; also called hMAK199VH.2b/hMAK199VL.2
As for B12, in assay [2], the Kd is 2100 pM, the koff amounted to 0.0014 s⁻¹ and the kon turned out to be 660000 M⁻¹ s⁻¹.

B13: AB372 (antibody, V domains shown)
VH: EVQLVQSGAEVKKPGASVKVSCKASGYTFTNYGMNWVRQAPGQGLEWMGWINTYTGEPTYADDFKGRVTMTTDTSTSTAYMELSSLRSEDTAVYYCARKFLTTVVVTDYAMDYWGQGTTVTVSS
VL: DVVMTQSPAFLSVTPGEKVTITCRASQDISNYLNWYQQKPDQAPKLLIKYTSRLQSGVPSRFSGSGSGTDFTFTISSLEAEDAATYYCQQGNTLPPTFGQGTKLEIK
notes: Full-length humanized antibody made in HEK 293-6E; also called hMAK199VH.2/hMAK199VL.2
Regarding B13, in assay [2], the Kd turned out to be 1200 pM, the koff came out at 0.0011 s⁻¹ and the kon came to 950000 M⁻¹ s⁻¹.

B14: AB378 (antibody, V domains shown)
VH: EIQLVQSGAEVKKPGASVKVSCKASGYTFTNYGMNWVRQAPGQGLEWMGWINTYTGEPTYADDFKGRFTFTLDTSTSTAYMELSSLRSEDTAVYFCARKFLTTVVVTDYAMDYWGQGTTVTVSS
VL: DVVMTQSPAFLSVTPGEKVTITCRASQDISNYLNWYQQKPDQAPKLLIKYTSRLQSGVPSRFSGSGSGTDFTFTISSLEAEDAATYYCQQGNTLPPTFGQGTKLEIK
notes: Full-length humanized antibody made in HEK 293-6E; also called hMAK199VH.2a/hMAK199VL.2
Take B14: in assay [2], the Kd came to 1400 pM, the koff was found to be 0.0013 s⁻¹ and the kon is 880000 M⁻¹ s⁻¹.

Source of the values: patent US20150111251A1 (AbbVie / Abbott, published 2015).
